Source: patent US7371551B1, “Feedback-resistant homoserine transsuccinylases” (priority 2002, dated 2008)

Assays:
[1] = system: homoserine transsuccinylase; experiment: Homoserine transsuccinylase enzyme test using cell extracts, decrease in extinction at 232 nm, with and without L-methionine; format: biochemical, E. coli; details: cell extract of E. coli W3110 transformants; 1 mM homoserine, 0.1 mM succinyl-CoA, 50 mM Tris/Cl pH 7.6
Text: Any method which enables the activity of the enzyme to be determined in the presence of L-methionine or SAM can be used for determining the sensitivity of the homoserine transsuccinylase to L-methionine and/or SAM. For example, the homoserine transsuccinylase activity can be determined by following the method described by Kredich and Tomkins for determining the activity of serine acetyltransferases (Kredich N. M. and Tomkins G. M., J. Biol. Chem. 241, 4955-4965 (1966)). The enzyme activity is measured in an assay sample which contains homoserine and succinyl-CoA. The reaction is started by adding enzyme and monitored in a spectrophotometer by way of the decrease in the extinction at 232 nm which results from cleavage of the thioester bond in the succinyl-coenzyme A. The described test is suitable for determining the sensitivity of the homoserine transsuccinylases to methionine. The inhibition of homoserine transsuccinylase activity is tested in the presence of different concentrations of L-methionine in the reaction mixture.
The activity, and the influence of L-methionine on the activity, of the different homoserine transsuccinylases were determined by means of an enzyme test using cell extracts in which the respective proteins had been produced. For this, the corresponding plasmids, encoding altered homoserine transsuccinylases, were introduced, by transformation, into the E. coli strain W3110 (ATCC 27325) using methods known to the skilled person. The transformation mixture was spread on LB-tetracycline agar plates (10 g of tryptone/l, 5 g of yeast extract/l, 5 g of NaCl/l, 15 g of agar/l and 15 mg of tetracycline/l) and incubated at 37° C. overnight. The resulting transformants were grown in SM1 medium (for 1 l of medium: CaCl2×2H2O, 0.0147 g, MgSO4×7H2O, 0.3 g, Na2MoO4×2H2O, 0.15 mg, H3BO3, 2.5 mg, CoCl2×6H2O, 0.7 mg, CuSO4×5H2O, 0.25 mg, MnCl2×4H2O, 1.6 mg, ZnSO4×7H2O, 0.3 mg, KH2PO4, 3.0 g, K2HPO4, 12.0 g, (NH4)2SO4, 5 g, NaCl, 0.6 g, FeSO4×7H2O, 0.002 g, Na3-citrate×2H2O, 1 g, glucose, 5 g, tryptone, 1 g, yeast extract, 0.5 g), centrifuged down at an absorption of approx. 0.8 at 600 nm, washed in 50 mM Tris pH 7.5, and centrifuged down once again. The cells were resuspended in 50 mM Tris/Cl, pH 7.5, 2 mM dithiothreitol, 0.5 mM phenylmethylsulfonyl fluoride and disrupted in a French press. The supernatant from a further centrifugation was used as the enzyme extract in the test. The enzyme activity was determined, in a mixture containing 50 mM Tris/Cl, pH 7.6, 1 mM homoserine and 0.1 mM succinyl-CoA, by photometrically quantifying, by means of the decrease in the extinction at 232 nm, the coenzyme A formed in the reaction, following the method described by Kredich and Tomkins for determining the activity of serine acetyltransferases (Kredich N. M. and Tomkins G. M., J. Biol. Chem. 241, 4955-4965 (1966)). The effect of added L-methionine on the activity was determined and the inhibitability was quantified as a Ki value. The Ki which is determined is the concentration of L-methionine at which the activity of the homoserine transsuccinylase is only 50% of its activity in the absence of L-methionine.

[2] = system: homoserine transsuccinylase; experiment: Homoserine transsuccinylase activity test (Lee et al.), 5,5'-dithiobis(2-nitrobenzoic acid), absorption at 412 nm, with and without SAM; format: biochemical, E. coli; details: cell extract; 3 mM homoserine, 0.3 mM succinyl-CoA, 50 mM potassium phosphate buffer pH 7.5
Procedure: In order to determine the sensitivity of the activity of the different homoserine transsuccinylases to SAM, it is possible, for example, to carry out an activity test as described in Lee L. W. et al., J. Biol. Chem. 241, 5479-5480 (1966). In this method, the enzyme extract is incubated with homoserine and succinyl-CoA. After various times, a part of the test assay sample is stopped by adding it to a mixture of ethanol, water, and 5,5′-dithiobis(2-nitrobenzoic acid). The absorption is determined photometrically at 412 nm. The described test is suitable, for example, for determining the sensitivity of the homoserine transsuccinylases to SAM.
The influence of SAM on the activities of the different homoserine transsuccinylases was determined by quantifying the activity in the presence of different concentrations of SAM (Cl salt, Sigma). The cell extracts were grown and prepared as described in Example 3. The activity test was carried out as described in Lee L. W. et al., J. Biol. Chem. 241, 5479-5480 (1966), with the enzyme extract being incubated with 50 mM potassium phosphate buffer, pH 7.5, 3 mM homoserine and 0.3 mM succinyl-CoA. After various times, 100 μl volumes of test mixture were stopped by adding them in each case to a mixture of 400 μl of ethanol, 400 μl of water and 100 μl of 10 mM 5,5′-dithiobis(2-nitrobenzoic acid). After the resulting mixture had been incubated at room temperature for 5 minutes, the absorption was determined photometrically at 412 nm. After the protein concentration had been determined, the enzyme activity was calculated using the extinction coefficient. The Ki was determined as a measure of the ability of SAM to inhibit the activity.

Molecule | Activity (U/mg) [1] | Activity (U/mg) [2]
pKP413GAP: E. coli wild-type homoserine transsuccinylase (MetA; Asp101, Tyr294) expressed from starting plasmid pKP413GAP (protein, UniProt P07623 2-309, looked up) Homoserine …: PIRVPDELPAVNFLREENVFVMTTSRASGQEIRPLKVLILNLMPKKIETENQFLRLLSNSPLQVDIQLLRIDSRESRNTPAEHLNNFYCNFEDIQDQNFDGLIVTGAPLGLVEFNDVAYWPQIKQVLEWSKDHVTSTLFVCWAVQAALNILYGIPKQTRTEKLSGVYEHHILHPHALLTRGFDDSFLAPHSRYADFPAALIRDYTDLEILAETEEGDAYLFASKDKRIAFVTGHPEYDAQTLAQEFFRDVEAGLDPDVPYNYFPHNDPQNTPRASWRSHGNLLFTNWLNYYVYQITPYDLRHMNPTLD | 0.155 U/mg | 0.62 U/mg
pKP446: MetA variant with Cys instead of Tyr at position 294 (protein, UniProt P07623 2-309, looked up, variant Y294C) Homoserine …: PIRVPDELPAVNFLREENVFVMTTSRASGQEIRPLKVLILNLMPKKIETENQFLRLLSNSPLQVDIQLLRIDSRESRNTPAEHLNNFYCNFEDIQDQNFDGLIVTGAPLGLVEFNDVAYWPQIKQVLEWSKDHVTSTLFVCWAVQAALNILYGIPKQTRTEKLSGVYEHHILHPHALLTRGFDDSFLAPHSRYADFPAALIRDYTDLEILAETEEGDAYLFASKDKRIAFVTGHPEYDAQTLAQEFFRDVEAGLDPDVPYNYFPHNDPQNTPRASWRSHGNLLFTNWLNYYVCQITPYDLRHMNPTLD | 0.133 U/mg | 0.49 U/mg
pSLmetA*L: MetA variant with Leu instead of Tyr at position 294 (protein, UniProt P07623 2-309, looked up, variant Y294L) Homoserine …: PIRVPDELPAVNFLREENVFVMTTSRASGQEIRPLKVLILNLMPKKIETENQFLRLLSNSPLQVDIQLLRIDSRESRNTPAEHLNNFYCNFEDIQDQNFDGLIVTGAPLGLVEFNDVAYWPQIKQVLEWSKDHVTSTLFVCWAVQAALNILYGIPKQTRTEKLSGVYEHHILHPHALLTRGFDDSFLAPHSRYADFPAALIRDYTDLEILAETEEGDAYLFASKDKRIAFVTGHPEYDAQTLAQEFFRDVEAGLDPDVPYNYFPHNDPQNTPRASWRSHGNLLFTNWLNYYVLQITPYDLRHMNPTLD | 0.070 U/mg | 0.29 U/mg
pSLmetA*K: MetA variant with Lys instead of Tyr at position 294 (protein, UniProt P07623 2-309, looked up, variant Y294K) Homoserine …: PIRVPDELPAVNFLREENVFVMTTSRASGQEIRPLKVLILNLMPKKIETENQFLRLLSNSPLQVDIQLLRIDSRESRNTPAEHLNNFYCNFEDIQDQNFDGLIVTGAPLGLVEFNDVAYWPQIKQVLEWSKDHVTSTLFVCWAVQAALNILYGIPKQTRTEKLSGVYEHHILHPHALLTRGFDDSFLAPHSRYADFPAALIRDYTDLEILAETEEGDAYLFASKDKRIAFVTGHPEYDAQTLAQEFFRDVEAGLDPDVPYNYFPHNDPQNTPRASWRSHGNLLFTNWLNYYVKQITPYDLRHMNPTLD | 0.048 U/mg | 0.14 U/mg
pSLmetA*P: MetA variant with Pro instead of Tyr at position 294 (protein, UniProt P07623 2-309, looked up, variant Y294P) Homoserine …: PIRVPDELPAVNFLREENVFVMTTSRASGQEIRPLKVLILNLMPKKIETENQFLRLLSNSPLQVDIQLLRIDSRESRNTPAEHLNNFYCNFEDIQDQNFDGLIVTGAPLGLVEFNDVAYWPQIKQVLEWSKDHVTSTLFVCWAVQAALNILYGIPKQTRTEKLSGVYEHHILHPHALLTRGFDDSFLAPHSRYADFPAALIRDYTDLEILAETEEGDAYLFASKDKRIAFVTGHPEYDAQTLAQEFFRDVEAGLDPDVPYNYFPHNDPQNTPRASWRSHGNLLFTNWLNYYVPQITPYDLRHMNPTLD | 0.020 U/mg | 0.15 U/mg
pSLmetA*Q: MetA variant with Gln instead of Tyr at position 294 (protein, UniProt P07623 2-309, looked up, variant Y294Q) Homoserine …: PIRVPDELPAVNFLREENVFVMTTSRASGQEIRPLKVLILNLMPKKIETENQFLRLLSNSPLQVDIQLLRIDSRESRNTPAEHLNNFYCNFEDIQDQNFDGLIVTGAPLGLVEFNDVAYWPQIKQVLEWSKDHVTSTLFVCWAVQAALNILYGIPKQTRTEKLSGVYEHHILHPHALLTRGFDDSFLAPHSRYADFPAALIRDYTDLEILAETEEGDAYLFASKDKRIAFVTGHPEYDAQTLAQEFFRDVEAGLDPDVPYNYFPHNDPQNTPRASWRSHGNLLFTNWLNYYVQQITPYDLRHMNPTLD | 0.065 U/mg | 0.21 U/mg
pSLmetA*A: MetA variant with Ala instead of Tyr at position 294 (protein, UniProt P07623 2-309, looked up, variant Y294A) Homoserine …: PIRVPDELPAVNFLREENVFVMTTSRASGQEIRPLKVLILNLMPKKIETENQFLRLLSNSPLQVDIQLLRIDSRESRNTPAEHLNNFYCNFEDIQDQNFDGLIVTGAPLGLVEFNDVAYWPQIKQVLEWSKDHVTSTLFVCWAVQAALNILYGIPKQTRTEKLSGVYEHHILHPHALLTRGFDDSFLAPHSRYADFPAALIRDYTDLEILAETEEGDAYLFASKDKRIAFVTGHPEYDAQTLAQEFFRDVEAGLDPDVPYNYFPHNDPQNTPRASWRSHGNLLFTNWLNYYVAQITPYDLRHMNPTLD | 0.063 U/mg | 0.26 U/mg
pSLmetAN: MetA variant with Asn instead of Asp at position 101 (protein, UniProt P07623 2-309, looked up, variant D101N) Homoserine …: PIRVPDELPAVNFLREENVFVMTTSRASGQEIRPLKVLILNLMPKKIETENQFLRLLSNSPLQVDIQLLRIDSRESRNTPAEHLNNFYCNFEDIQDQNFNGLIVTGAPLGLVEFNDVAYWPQIKQVLEWSKDHVTSTLFVCWAVQAALNILYGIPKQTRTEKLSGVYEHHILHPHALLTRGFDDSFLAPHSRYADFPAALIRDYTDLEILAETEEGDAYLFASKDKRIAFVTGHPEYDAQTLAQEFFRDVEAGLDPDVPYNYFPHNDPQNTPRASWRSHGNLLFTNWLNYYVYQITPYDLRHMNPTLD | 0.050 U/mg | 0.30 U/mg
pSLmetA*0: MetA variant in which amino acid 294 is deleted (protein, UniProt P07623 2-309, looked up, variant Y294*) Homoserine …: PIRVPDELPAVNFLREENVFVMTTSRASGQEIRPLKVLILNLMPKKIETENQFLRLLSNSPLQVDIQLLRIDSRESRNTPAEHLNNFYCNFEDIQDQNFDGLIVTGAPLGLVEFNDVAYWPQIKQVLEWSKDHVTSTLFVCWAVQAALNILYGIPKQTRTEKLSGVYEHHILHPHALLTRGFDDSFLAPHSRYADFPAALIRDYTDLEILAETEEGDAYLFASKDKRIAFVTGHPEYDAQTLAQEFFRDVEAGLDPDVPYNYFPHNDPQNTPRASWRSHGNLLFTNWLNYYVQITPYDLRHMNPTLD | 0.085 U/mg | 0.33 U/mg
